target: T1, mouse B6 class I antigens (D^b or K^b molecules on the surface of RMA-S cells) (mouse, UniProt P01887 21-119); test: RMA-S cells incubated with peptide (25 ug/ml), stained with FITC anti-D^b or anti-K^b, flow cytometry
T1 sequence (P01887 21-119): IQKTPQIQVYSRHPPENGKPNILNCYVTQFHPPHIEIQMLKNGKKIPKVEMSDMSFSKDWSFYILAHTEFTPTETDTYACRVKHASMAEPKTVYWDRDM

| Binder | Binding Affinity to Mouse MHC Class I (% increase of D^b or K^b on RMA-S cells) [%] |
| --- | --- |
| QMTSQLECM [WT1 peptide p228-236 (QMTSQLECM)] | 1.2 |
| NLYQMTSQL [WT1 peptide p225-233 (NLYQMTSQL)] | 5.8 |
| YSSDNLYQM [WT1 peptide p221-229 (YSSDNLYQM)] | 0.8 |
| GCNKRYFKL [WT1 peptide p329-337 (GCNKRYFKL)] | 1.2 |
| SCLESQPAI (also called human p136-144) [WT1 peptide p136-144 human (SCLESQPAI)] | 52 |
| ALLPAVPSL (also called human p10-18) [WT1 peptide p10-18 human (ALLPAVPSL)] | 2.2 |
| NQMNLGATL [WT1 peptide p239-247 (NQMNLGATL)] | 1 |
| CMTWNQMNL [WT1 peptide p235-243 (CMTWNQMNL)] | 33.6 |

target: T1, mouse B6 class I antigens (D^b or K^b …); test: binding of 9-mer peptides within p117-139 to mouse B6 (H-2^b) class I; RMA-S cell assay, flow cytometry

| Binder | Binding Affinity to Mouse MHC Class I (%) |
| --- | --- |
| PNAPYLPSC [WT1 peptide P129-137 (PNAPYLPSC)] | 1 |
| SQASSGQAR [WT1 peptide P118-126 (SQASSGQAR)] | 2 |
| APYLPSCLE [WT1 peptide P131-139 (APYLPSCLE)] | 1 |
| ARMFPNAPY [WT1 peptide P125-133 (ARMFPNAPY)] | 1 |
| PSQASSGQA [WT1 peptide P117-125 (PSQASSGQA)] | 2 |
| MFPNAPYLP [WT1 peptide P127-135 (MFPNAPYLP)] | 2 |
| QARMFPNA [WT1 peptide P124-132 (printed QARMFPNA)] | 1 |
| ASSGQARMF [WT1 peptide P120-128 (ASSGQARMF)] | 1 |
| SSGQARMFP [WT1 peptide P121-129 (SSGQARMFP)] | 1 |
| QASSGQARM [WT1 peptide P119-127 (QASSGQARM)] | 2 |
| FPNAPYLPS [WT1 peptide P128-136 (FPNAPYLPS)] | 1 |
| NAPYLPSCL [WT1 peptide P130-138 (NAPYLPSCL)] | 79 |

From patent US20030215458A1 (published 2003)
